Experiments:
[1] = target: T1, 5T4 17-25 variant R1A (alanine-substituted) peptide on HLA-A*02:01 (human); assay: killing
T1 peptide: ALARLALVL

[2] = target: T2, 5T4 17-25 variant R4A (alanine-substituted) peptide on HLA-A*02:01 (human); assay: killing
T2 peptide: RLAALALVL

[3] = target: T3, DDX3Y peptide on HLA-A*02:01 (human); assay: killing
T3 peptide: FLLDILGAT

[4] = target: T4, UTY peptide on HLA-A*02:01 (human); assay: killing
T4 peptide: KAFQDVLYV

[5] = target: T5, 5T4 (trophoblast glycoprotein, TPBG) peptide on HLA-A*02:01 (human); assay: multimer staining
T5 peptide: RLARLALVL

[6] = target: T6, HLA-A*0201 on the surface of T2 cells (human); assay: HLA-A2 stabilization on T2 cells, BB7.2 staining, flow cytometry
T6 construct: Class I molecule that the test peptides load in the HLA-A2 stabilization assay; also called HLA-A2

B1: Clone2-6B8 (TCR, V domains shown)
Valpha: QKEVEQNSGPLSVPEGAIASLNCTYSDRGSQSFFWYRQYSGKSPELIMFIYSNGDKEDGRFTAQLNKASQYVSLLIRDSQPSDSATYLCAVPDDAGNMLTFGGGTRLMVKP
Vbeta: DAGITQSPRYKITETGRQVTLMCHQTWSHSYMFWYRQDLGHGLRLIYYSAAADITDKGEVPDGYVVSRSKTENFPLTLESATRSQTSVYFCASSELPAGGTNEQFFGPGTRLTVL
Does B1 bind [1]?
Result: recognises

Does B1 bind [2]?
Result: no recognition

Does B1 bind [3]?
Result: no recognition

Does B1 bind [4]?
Result: no recognition

Does B1 bind [5]?
Result: recognises

B2: Clone21-7A10 (TCR, V domains shown)
Valpha: GQSLEQPSEVTAVEGAIVQINCTYQTSGFYGLSWYQQHDGGAPTFLSYNALDGLEETGRFSSFLSRSDSYGYLLLQELQMKDSASYFCAVRDDYGQNFVFGPGTRLSVLP
Vbeta: NAGVMQNPRHLVRRRGQEARLRCSPMKGHSHVYWYRQLPEEGLKFMVYLQKENIIDESGMPKERFSAEFPKEGPSILRIQQVVRGDSAAYFCASSPQGDNEQFFGPGTRLTVL
Does B2 bind [1]?
Result: recognises

Does B2 bind [2]?
Result: no recognition

Does B2 bind [3]?
Result: no recognition

Does B2 bind [4]?
Result: no recognition

Does B2 bind [5]?
Result: recognises

B3: Clone19-5C2 (TCR, V domains shown)
Valpha: AQTVTQSQPEMSVQEAETVTLSCTYDTSESDYYLFWYKQPPSRQMILVIRQEAYKQQNATENRFSVNFQKAAKSFSLKISDSQLGDAAMYFCAYRSGSDGGSQGNLIFGKGTKLSVKP
Vbeta: ETGVTQTPRHLVMGMTNKKSLKCEQHLGHNAMYWYKQSAKKPLELMFVYSLEERVENNSVPSRFSPECPNSSHLFLHLHTLQPEDSALYLCASSQVSGYEQYFGPGTRLTVT
Does B3 bind [1]?
Result: no recognition

Does B3 bind [2]?
Result: no recognition

Does B3 bind [3]?
Result: no recognition

Does B3 bind [4]?
Result: no recognition

Does B3 bind [5]?
Result: recognises

B4: L5A synthetic peptide RLARAALVL (peptide)
peptide: RLARAALVL
notes: Alanine-substituted variant of 5T4p17
Does B4 bind [6]?
Result: no binding

B5: L7A synthetic peptide RLARLAAVL (peptide)
peptide: RLARLAAVL
notes: as for B4
Does B5 bind [6]?
Result: no binding

B6: R1A synthetic peptide ALARLALVL (peptide)
peptide: ALARLALVL
notes: as for B4
Does B6 bind [6]?
Result: binds

B7: V8A synthetic peptide RLARLALAL (peptide)
peptide: RLARLALAL
notes: as for B4
Does B7 bind [6]?
Result: no binding

B8: R4A synthetic peptide RLAALALVL (peptide)
peptide: RLAALALVL
notes: as for B4
Does B8 bind [6]?
Result: binds

B9: Clone3-6C3 (TCR, V domains shown)
Valpha: AQTVTQSQPEMSVQEAETVTLSCTYDTSESDYYLFWYKQPPSRQMILVIRQEAYKQQNATENRFSVNFQKAAKSFSLKISDSQLGDAAMYFCSSGGGADGLTFGKGTHLIIQP
Vbeta: NAGVTQTPKFRVLKTGQSMTLLCAQDMNHEYMYWYRQDPGMGLRLIHYSVGEGTTAKGEVPDGYNVSRLKKQNFLLGLESAAPSQTSVYFCASMDLAFKQYFGPGTRLTVT
Does B9 bind [1]?
Result: no recognition

Does B9 bind [2]?
Result: no recognition

Does B9 bind [3]?
Result: no recognition

Does B9 bind [4]?
Result: no recognition

Does B9 bind [5]?
Result: recognises

B10: Clone15-3F10 (TCR, V domains shown)
Valpha: AQTVTQSQPEMSVQEAETVTLSCTYDTSENNYYLFWYKQPPSRQMILVIRQEAYKQQNATENRFSVNFQKAAKSFSLKISDSQLGDTAMYFCASMYSGGGADGLTFGKGTHLIIQP
Vbeta: EAQVTQNPRYLITVTGKKLTVTCSQNMNHEYMSWYRQDPGLGLRQIYYSMNVEVTDKGDVPEGYKVSRKEKRNFPLILESPSPNQTSLYFCASSFFSNTGELFFGEGSRLTVL
Does B10 bind [1]?
Result: recognises

Does B10 bind [2]?
Result: no recognition

Does B10 bind [3]?
Result: no recognition

Does B10 bind [4]?
Result: no recognition

Does B10 bind [5]?
Result: recognises

Reference: US20220267403A1 (FRED HUTCHINSON CANCER RESEARCH CENTER, published 2022)
